8 molecules from EP4692114A1, “CALCITONIN ANALOGUE, AND DERIVATIVE THEREOF AND USE THEREOF” (Hangzhou Sciwind Biosciences Co., Ltd., priority 2023, dated 2024) can be followed below.

*1 amine or outer side, *2 acyl side, *3 side chain or, on linkers, in order; H or OH if unused. Primed or numbered codes have the meaning given here. The star is where a group is joined. C22 diacid = O=C(O)CCCCCCCCCCCCCCCCCCCCC(=O)*; C20 diacid = O=C(O)CCCCCCCCCCCCCCCCCCC(=O)*; C18 diacid = O=C(O)CCCCCCCCCCCCCCCCC(=O)*; γGlu = O=C(O)[C@H](CCC(=O)[*:2])N[*:1]; Inp′ = not defined here; AEEA = NCCOCCOCC(=O)O

To fix the notation:
T1: human amylin receptor (AMY3) on CHO-K1/Gal5/AMY3 cells (human, UniProt P30988 25-474; O60896 24-148)
T1 sequence (looked up) 1: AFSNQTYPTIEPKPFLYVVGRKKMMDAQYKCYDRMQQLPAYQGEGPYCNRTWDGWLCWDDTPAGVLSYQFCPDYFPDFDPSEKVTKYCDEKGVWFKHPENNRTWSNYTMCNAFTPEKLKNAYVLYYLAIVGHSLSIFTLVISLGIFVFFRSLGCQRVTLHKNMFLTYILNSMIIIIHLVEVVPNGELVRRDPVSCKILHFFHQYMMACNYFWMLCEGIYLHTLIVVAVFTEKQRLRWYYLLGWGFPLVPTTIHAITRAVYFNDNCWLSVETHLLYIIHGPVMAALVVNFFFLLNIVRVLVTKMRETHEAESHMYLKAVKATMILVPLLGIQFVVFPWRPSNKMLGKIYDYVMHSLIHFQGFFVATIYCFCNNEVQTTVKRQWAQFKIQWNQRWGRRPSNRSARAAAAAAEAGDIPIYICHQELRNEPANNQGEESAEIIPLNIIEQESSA
T1 sequence (looked up) 2: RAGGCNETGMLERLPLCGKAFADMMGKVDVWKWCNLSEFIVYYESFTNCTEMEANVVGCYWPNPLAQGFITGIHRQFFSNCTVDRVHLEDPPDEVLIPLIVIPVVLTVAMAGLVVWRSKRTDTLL

B1: calcitonin derivative M65 (peptide)
peptide: {C22 diacid-γGlu}-ASQLSTAVLGRLSEELHRLQDYPRTDVGSGSP-NH2
SMILES: CC(C)C[C@H](NC(=O)[C@H](CCCNC(=N)N)NC(=O)CNC(=O)[C@H](CC(C)C)NC(=O)[C@@H](NC(=O)[C@H](C)NC(=O)[C@@H](NC(=O)[C@H](CO)NC(=O)[C@H](CC(C)C)NC(=O)[C@H](CCC(N)=O)NC(=O)[C@H](CO)NC(=O)[C@H](C)NC(=O)CC[C@H](NC(=O)CCCCCCCCCCCCCCCCCCCCC(=O)O)C(=O)O)[C@@H](C)O)C(C)C)C(=O)N[C@@H](CO)C(=O)N[C@@H](CCC(=O)O)C(=O)N[C@@H](CCC(=O)O)C(=O)N[C@@H](CC(C)C)C(=O)N[C@@H](Cc1c[nH]cn1)C(=O)N[C@@H](CCCNC(=N)N)C(=O)N[C@@H](CC(C)C)C(=O)N[C@@H](CCC(N)=O)C(=O)N[C@@H](CC(=O)O)C(=O)N[C@@H](Cc1ccc(O)cc1)C(=O)N1CCC[C@H]1C(=O)N[C@@H](CCCNC(=N)N)C(=O)N[C@H](C(=O)N[C@@H](CC(=O)O)C(=O)N[C@H](C(=O)NCC(=O)N[C@@H](CO)C(=O)NCC(=O)N[C@@H](CO)C(=O)N1CCC[C@H]1C(N)=O)C(C)C)[C@@H](C)O
B2: calcitonin derivative M32 (peptide)
peptide: {C20 diacid-γGlu}-RSQLSTEVLGRLSQELHRLQDYPRTDVGSGSP-NH2
SMILES: CC(C)C[C@H](NC(=O)[C@H](CCCNC(=N)N)NC(=O)CNC(=O)[C@H](CC(C)C)NC(=O)[C@@H](NC(=O)[C@H](CCC(=O)O)NC(=O)[C@@H](NC(=O)[C@H](CO)NC(=O)[C@H](CC(C)C)NC(=O)[C@H](CCC(N)=O)NC(=O)[C@H](CO)NC(=O)[C@H](CCCNC(=N)N)NC(=O)CC[C@H](NC(=O)CCCCCCCCCCCCCCCCCCC(=O)O)C(=O)O)[C@@H](C)O)C(C)C)C(=O)N[C@@H](CO)C(=O)N[C@@H](CCC(N)=O)C(=O)N[C@@H](CCC(=O)O)C(=O)N[C@@H](CC(C)C)C(=O)N[C@@H](Cc1c[nH]cn1)C(=O)N[C@@H](CCCNC(=N)N)C(=O)N[C@@H](CC(C)C)C(=O)N[C@@H](CCC(N)=O)C(=O)N[C@@H](CC(=O)O)C(=O)N[C@@H](Cc1ccc(O)cc1)C(=O)N1CCC[C@H]1C(=O)N[C@@H](CCCNC(=N)N)C(=O)N[C@H](C(=O)N[C@@H](CC(=O)O)C(=O)N[C@H](C(=O)NCC(=O)N[C@@H](CO)C(=O)NCC(=O)N[C@@H](CO)C(=O)N1CCC[C@H]1C(N)=O)C(C)C)[C@@H](C)O
B3: calcitonin derivative M16 (peptide)
peptide: {C20 diacid-γGlu}-ASQLSTAVLGRLSQELHRLQDYPRTDSGSGSP-NH2
SMILES: CC(C)C[C@H](NC(=O)[C@H](CCCNC(=N)N)NC(=O)CNC(=O)[C@H](CC(C)C)NC(=O)[C@@H](NC(=O)[C@H](C)NC(=O)[C@@H](NC(=O)[C@H](CO)NC(=O)[C@H](CC(C)C)NC(=O)[C@H](CCC(N)=O)NC(=O)[C@H](CO)NC(=O)[C@H](C)NC(=O)CC[C@H](NC(=O)CCCCCCCCCCCCCCCCCCC(=O)O)C(=O)O)[C@@H](C)O)C(C)C)C(=O)N[C@@H](CO)C(=O)N[C@@H](CCC(N)=O)C(=O)N[C@@H](CCC(=O)O)C(=O)N[C@@H](CC(C)C)C(=O)N[C@@H](Cc1c[nH]cn1)C(=O)N[C@@H](CCCNC(=N)N)C(=O)N[C@@H](CC(C)C)C(=O)N[C@@H](CCC(N)=O)C(=O)N[C@@H](CC(=O)O)C(=O)N[C@@H](Cc1ccc(O)cc1)C(=O)N1CCC[C@H]1C(=O)N[C@@H](CCCNC(=N)N)C(=O)N[C@H](C(=O)N[C@@H](CC(=O)O)C(=O)N[C@@H](CO)C(=O)NCC(=O)N[C@@H](CO)C(=O)NCC(=O)N[C@@H](CO)C(=O)N1CCC[C@H]1C(N)=O)[C@@H](C)O
B4: calcitonin derivative M64 (peptide)
peptide: {C20 diacid-γGlu-AEEA-AEEA-AEEA-AEEA-AEEA-AEEA}-ASQLSTAVLGRLSEELHRLQDYPRTDVGSGSP-NH2
SMILES: CC(C)C[C@H](NC(=O)[C@H](CCCNC(=N)N)NC(=O)CNC(=O)[C@H](CC(C)C)NC(=O)[C@@H](NC(=O)[C@H](C)NC(=O)[C@@H](NC(=O)[C@H](CO)NC(=O)[C@H](CC(C)C)NC(=O)[C@H](CCC(N)=O)NC(=O)[C@H](CO)NC(=O)[C@H](C)NC(=O)COCCOCCNC(=O)COCCOCCNC(=O)COCCOCCNC(=O)COCCOCCNC(=O)COCCOCCNC(=O)COCCOCCNC(=O)CC[C@H](NC(=O)CCCCCCCCCCCCCCCCCCC(=O)O)C(=O)O)[C@@H](C)O)C(C)C)C(=O)N[C@@H](CO)C(=O)N[C@@H](CCC(=O)O)C(=O)N[C@@H](CCC(=O)O)C(=O)N[C@@H](CC(C)C)C(=O)N[C@@H](Cc1c[nH]cn1)C(=O)N[C@@H](CCCNC(=N)N)C(=O)N[C@@H](CC(C)C)C(=O)N[C@@H](CCC(N)=O)C(=O)N[C@@H](CC(=O)O)C(=O)N[C@@H](Cc1ccc(O)cc1)C(=O)N1CCC[C@H]1C(=O)N[C@@H](CCCNC(=N)N)C(=O)N[C@H](C(=O)N[C@@H](CC(=O)O)C(=O)N[C@H](C(=O)NCC(=O)N[C@@H](CO)C(=O)NCC(=O)N[C@@H](CO)C(=O)N1CCC[C@H]1C(N)=O)C(C)C)[C@@H](C)O
B5: calcitonin derivative M49 (peptide)
peptide: {C20 diacid-γGlu}-ASQLSTAVLGRLSQELHRLQDFPRTDVGSGSP-NH2
SMILES: CC(C)C[C@H](NC(=O)[C@H](CCCNC(=N)N)NC(=O)CNC(=O)[C@H](CC(C)C)NC(=O)[C@@H](NC(=O)[C@H](C)NC(=O)[C@@H](NC(=O)[C@H](CO)NC(=O)[C@H](CC(C)C)NC(=O)[C@H](CCC(N)=O)NC(=O)[C@H](CO)NC(=O)[C@H](C)NC(=O)CC[C@H](NC(=O)CCCCCCCCCCCCCCCCCCC(=O)O)C(=O)O)[C@@H](C)O)C(C)C)C(=O)N[C@@H](CO)C(=O)N[C@@H](CCC(N)=O)C(=O)N[C@@H](CCC(=O)O)C(=O)N[C@@H](CC(C)C)C(=O)N[C@@H](Cc1c[nH]cn1)C(=O)N[C@@H](CCCNC(=N)N)C(=O)N[C@@H](CC(C)C)C(=O)N[C@@H](CCC(N)=O)C(=O)N[C@@H](CC(=O)O)C(=O)N[C@@H](Cc1ccccc1)C(=O)N1CCC[C@H]1C(=O)N[C@@H](CCCNC(=N)N)C(=O)N[C@H](C(=O)N[C@@H](CC(=O)O)C(=O)N[C@H](C(=O)NCC(=O)N[C@@H](CO)C(=O)NCC(=O)N[C@@H](CO)C(=O)N1CCC[C@H]1C(N)=O)C(C)C)[C@@H](C)O
B6: calcitonin derivative M30 (peptide)
peptide: {C20 diacid-γGlu}-SSQLSTAVLGRLSQELHRLQDYPRTDVGSGSP-NH2
SMILES: CC(C)C[C@H](NC(=O)[C@H](CCCNC(=N)N)NC(=O)CNC(=O)[C@H](CC(C)C)NC(=O)[C@@H](NC(=O)[C@H](C)NC(=O)[C@@H](NC(=O)[C@H](CO)NC(=O)[C@H](CC(C)C)NC(=O)[C@H](CCC(N)=O)NC(=O)[C@H](CO)NC(=O)[C@H](CO)NC(=O)CC[C@H](NC(=O)CCCCCCCCCCCCCCCCCCC(=O)O)C(=O)O)[C@@H](C)O)C(C)C)C(=O)N[C@@H](CO)C(=O)N[C@@H](CCC(N)=O)C(=O)N[C@@H](CCC(=O)O)C(=O)N[C@@H](CC(C)C)C(=O)N[C@@H](Cc1c[nH]cn1)C(=O)N[C@@H](CCCNC(=N)N)C(=O)N[C@@H](CC(C)C)C(=O)N[C@@H](CCC(N)=O)C(=O)N[C@@H](CC(=O)O)C(=O)N[C@@H](Cc1ccc(O)cc1)C(=O)N1CCC[C@H]1C(=O)N[C@@H](CCCNC(=N)N)C(=O)N[C@H](C(=O)N[C@@H](CC(=O)O)C(=O)N[C@H](C(=O)NCC(=O)N[C@@H](CO)C(=O)NCC(=O)N[C@@H](CO)C(=O)N1CCC[C@H]1C(N)=O)C(C)C)[C@@H](C)O
B7: calcitonin derivative M17 (peptide)
peptide: {C20 diacid-γGlu}-ASQLSTAVLGRLSQELHRLQDYPRTQSGSGSP-NH2
SMILES: CC(C)C[C@H](NC(=O)[C@H](CCCNC(=N)N)NC(=O)CNC(=O)[C@H](CC(C)C)NC(=O)[C@@H](NC(=O)[C@H](C)NC(=O)[C@@H](NC(=O)[C@H](CO)NC(=O)[C@H](CC(C)C)NC(=O)[C@H](CCC(N)=O)NC(=O)[C@H](CO)NC(=O)[C@H](C)NC(=O)CC[C@H](NC(=O)CCCCCCCCCCCCCCCCCCC(=O)O)C(=O)O)[C@@H](C)O)C(C)C)C(=O)N[C@@H](CO)C(=O)N[C@@H](CCC(N)=O)C(=O)N[C@@H](CCC(=O)O)C(=O)N[C@@H](CC(C)C)C(=O)N[C@@H](Cc1c[nH]cn1)C(=O)N[C@@H](CCCNC(=N)N)C(=O)N[C@@H](CC(C)C)C(=O)N[C@@H](CCC(N)=O)C(=O)N[C@@H](CC(=O)O)C(=O)N[C@@H](Cc1ccc(O)cc1)C(=O)N1CCC[C@H]1C(=O)N[C@@H](CCCNC(=N)N)C(=O)N[C@H](C(=O)N[C@@H](CCC(N)=O)C(=O)N[C@@H](CO)C(=O)NCC(=O)N[C@@H](CO)C(=O)NCC(=O)N[C@@H](CO)C(=O)N1CCC[C@H]1C(N)=O)[C@@H](C)O

The assay has as its target T1, human amylin receptor (AMY3) on …. Briefly: cell-based or functional assay.
For the molecule B1, the “EC50/nM, CRE-luciferase in amylin receptor/CRE-luc CHO cells” value was found to be 0.017 nM. For B2 the value was 0.03 nM. For B3 the value was 0.025 nM. Under B4 stands 0.044 nM; under {C18 diacid-Inp′}-ASQLSTAVLGRLSDELHRLQDYPRTDVGSGSP-NH2 [calcitonin derivative M48], 0.063 nM; under B5, 0.075 nM.

Take B6: the “EC50/nM, CRE-luciferase in amylin receptor/CRE-luc CHO cells” value stood at 0.017 nM.

As for B7, the “EC50/nM, CRE-luciferase in amylin receptor/CRE-luc CHO cells” value is 0.042 nM.
